Patent publication US20230374132A1 (Innovent, published 2023)
Where a chain is given by its changes, count along the chain named. In names and notes the source's numbering stands. Read-outs that look alike come from different tables or passages of the source.

B1: 030 (bispecific antibody, human IgG1, kappa, lambda, L234A L235A)
heavy 1: not shown
light 1: not shown
heavy 2: not shown
light 2: QAVVTQEPSLTVSPGGTVTLTCRSSTGAVTTSNYANWVQQKPGQAPRGLIGGTNKRAPGVPARFSGSLLGDKAALTLLGAQPEDEAEYYCALWYSNLWVFGQGTKLTVLGQPKAAPSVTLFPPSSEELQANKATLVCLISDFYPGAVTVAWKADSSPVKAGVETTTPSKQSNNKYAASSYLSLTPEQWKSHRSYSCQVTHEGSTVEKTVAPTECS
notes: 1+1, IgG1 LALA knob-into-hole; also called CLDN18.2xCD3 bispecific antibody 030; HB37A6 x HzSP34.24
B2: 032 (bispecific antibody, human IgG1, kappa, lambda, L234A L235A)
heavy 1: not shown
light 1: not shown
heavy 2: not shown
light 2: B1 light 2
notes: 1+1, IgG1 LALA knob-into-hole; also called CLDN18.2xCD3 bispecific antibody 032; HB37A6 x HzSP34.87
B3: 033 (bispecific antibody, human IgG1, kappa, lambda, L234A L235A)
heavy 1: not shown
light 1: not shown
heavy 2: not shown
light 2: B1 light 2
notes: 1+1, IgG1 LALA knob-into-hole; also called CLDN18.2xCD3 bispecific antibody 033; HB37A6 x HzSP34.97
B4: sp34 (antibody, human IgG1, lambda, L234A L235A, V domains shown)
VH: EVQLVESGGGLVQPKGSLKLSCAASGFTFNTYAMNWVRQAPGKGLEWVARIRSKYNNYATYYADSVKDRFTISRDDSQSILYLQMNNLKTEDTAMYYCVRHGNFGNSYVSWFAYWGQGTLVTVSS
VL: QAVVTQESALTTSPGETVTLTCRSSTGAVTTSNYANWVQEKPDHLFTGLIGGTNKRAPGVPARFSGSLIGDKAALTITGAQTEDEAIYFCALWYSNLWVFGGGTKLTVLG
notes: mouse variable regions on human IgG1 L234A L235A and lambda constant regions; also called chimeric antibody sp34; mouse sp34
B5: hzsp34.24 (antibody, human IgG1, lambda, L234A L235A, V domains shown)
VH: B4 VH with K15G, P41S, A49G, Q78K, I80T, N87S, M95V, V99A, N106Q, L120T
VL: QAVVTQEPSLTVSPGGTVTLTCRSSTGAVTTSNYANWVQQKPGQAPRGLIGGTNKRAPGVPARFSGSLLGDKAALTLLGAQPEDEAEYYCALWYSNLWVFGQGTKLTVLG
notes: IgG1 L234A L235A, lambda; parent of the CDR mutants
B6: hzsp34.95 (antibody, human IgG1, lambda, L234A L235A, V domains shown)
VH: EVQLVESGGGLVQPGGSLKLSCAASGFTFSGSAMNWVRQASGKGLEWVGRIRSKYNNYATYYADSVKDRFTISRDDSKSTLYLQMNSLKTEDTAVYYCARHGNFGQSYVSWFAYWGQGTTVTVSS
VL: B5 VL
notes: CDR mutant of hzsp34.24; IgG1 L234A L235A, lambda
B7: hzsp34.96 (antibody, human IgG1, lambda, L234A L235A, V domains shown)
VH: B6 VH with S30N, G31T, S32Y, R52S, S53L
VL: B5 VL
notes: as for B6
B8: hzsp34.97 (antibody, human IgG1, lambda, L234A L235A, V domains shown)
VH: B6 VH with S30N, G31T, S32Y, Y55A, N56G, N57G
VL: B5 VL
notes: as for B6
B9: hzsp34.116 (antibody, human IgG1, lambda, L234A L235A, V domains shown)
VH: B6 VH with S30N, G31T, S32Y
VL: B5 VL with K55S, N96D
notes: as for B6

What was measured:
[1] = molecular target: T1, human CD3 E&D complex protein (Sino Biological Inc., CT026H0323H) (human, UniProt P07766 23-126; P04234 22-105); test: BLI, antibody on sensor
T1 construct: bought heterodimer; also called human CD3 protein (CT026H0323H)
T1 sequence (P07766 23-126, chain 1 of 2): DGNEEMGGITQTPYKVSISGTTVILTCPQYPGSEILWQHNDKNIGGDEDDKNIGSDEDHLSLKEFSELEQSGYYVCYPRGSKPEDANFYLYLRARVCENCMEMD
T1 sequence (P04234 22-105, chain 2 of 2): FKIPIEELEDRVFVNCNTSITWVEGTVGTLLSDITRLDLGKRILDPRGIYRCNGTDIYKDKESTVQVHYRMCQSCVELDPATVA
Procedure: The equilibrium dissociation constant (KD) of the bispecific antibody of the invention binding to human CD3 protein was determined by the Biolayer Interferometry (BLI). The affinity determination of BLI method was carried out according to the existing methods (Estep, P et al., High throughput solution based measurement of antibody-antigen affinity and affinity binding. MAbs, 2013.5 (2): 270-8).
An appropriate number of AHC (18-5060, Fortebio) sensors was taken and soaked in SD buffer (1×PBS, BSA 0.1%, Tween-20 0.05%) according to the number of samples at half an hour before the experiment. 100 μl of SD buffer, each bispecific antibody and human CD3 protein (CT026H0323H, Sino Biological Inc.) were added into 96-well black polystyrene semi-quantitative micro-well plate (Greiner, 675076). Fortebio Octet Red96 was used for detection, and the sensor position was selected according to the sample position. The setting parameters of the instrument were as follows: operation steps: Baseline, Loading-1 nm, Baseline, Association and Dissociation; the operation time of each step depended on the speed of sample combination and dissociation. The rotational speed was 1000 rpm and the temperature was 30° C. ForteBio Octet analysis software was used to analyze KD value.

[2] = molecular target: T2, human Claudin 18.2 (GenScrip, P50251802) (human, UniProt P56856-2 1-261, limits assumed); test: SPR, antigen on chip
T2 construct: bought antigen coupled to the chip; also called human CLDN18.2; CLDN18.2
T2 sequence (looked up): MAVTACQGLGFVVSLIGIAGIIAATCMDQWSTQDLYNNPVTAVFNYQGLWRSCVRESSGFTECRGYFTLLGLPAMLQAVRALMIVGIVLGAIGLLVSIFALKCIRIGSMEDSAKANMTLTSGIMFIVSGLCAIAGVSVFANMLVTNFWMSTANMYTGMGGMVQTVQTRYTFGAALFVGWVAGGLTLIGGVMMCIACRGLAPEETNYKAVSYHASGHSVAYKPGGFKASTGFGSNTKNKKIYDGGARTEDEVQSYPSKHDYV
Procedure: The equilibrium dissociation constant (KD) of binding to human CLDN18.2 was determined by surface plasma resonance (SPR). […] After coupling, 1 M ethanolamine was injected to block the remaining activation sites. According to the manufacturer's instructions, the binding and dissociation between the chip surface antigen and various bispecific antibodies in the mobile phase were detected by Biacore (GE Healthcare, T200) to obtain the affinity and kinetic constants. The antibody after serial dilution (0-100 nM, twice dilution) flowed through the chip surface in order from low concentration to high concentration, with binding time of 180 s and dissociation time of 600 s. Finally, 10 mM Glycine pH 1.5 (GE Healthcare, BR-1003-54) was used to regenerate the chip. The resulting data were analyzed using the Biacore T200 analysis software and the 1:1 combination model.

[3] = molecular target: T3, human CLDN18.2 on tumor cells (NUGC-4; DAN-G-hCLDN18.2) (human, UniProt P56856-2 1-261); test: cell-based or functional assay
T3 sequence (looked up): T2 sequence (looked up)

[4] = molecular target: T4, human CD3 complex on Jurkat cells (human, UniProt P07766 23-207; P04234 22-171; P09693 23-182); test: flow cytometry on Jurkat cells (human CD3 complex), 'Jurkat cell line binding', method of Example 3.2
T4 construct: whole, on cells; natural CD3 complex of Jurkat T cells (also used here for CD3 on T cells of human PBMC); also called human CD3 at the cell level; CD3 on T cells
T4 sequence (P07766 23-207, chain 1 of 3): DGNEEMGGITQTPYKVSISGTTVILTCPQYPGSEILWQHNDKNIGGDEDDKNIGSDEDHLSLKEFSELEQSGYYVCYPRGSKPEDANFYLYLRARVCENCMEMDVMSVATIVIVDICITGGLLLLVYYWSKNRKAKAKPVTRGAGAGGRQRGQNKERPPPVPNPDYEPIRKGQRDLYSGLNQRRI
T4 sequence (P04234 22-171, chain 2 of 3): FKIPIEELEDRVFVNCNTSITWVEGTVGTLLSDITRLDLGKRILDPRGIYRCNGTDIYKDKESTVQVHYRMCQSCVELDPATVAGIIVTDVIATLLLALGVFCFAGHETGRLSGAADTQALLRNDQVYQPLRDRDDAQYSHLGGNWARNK
T4 sequence (P09693 23-182, chain 3 of 3): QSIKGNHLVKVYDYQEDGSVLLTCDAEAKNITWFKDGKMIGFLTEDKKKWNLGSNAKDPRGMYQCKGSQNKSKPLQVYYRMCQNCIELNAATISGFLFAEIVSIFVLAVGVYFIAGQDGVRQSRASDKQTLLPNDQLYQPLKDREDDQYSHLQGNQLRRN
Procedure: (§1) Jurkat cells are immortalized human T lymphocytes, which express human CD3 complex. The cell line is used to detect the binding of the antibody to the cell. The detailed operation was as follows: Jurkat cells (Promega, J1621) was inoculated into U-shaped 96-well plate, 2×10⁵ for each well. The antibodies to be detected at a series of concentration gradients (the initial concentration of antibody molecule is 500 nM, 3 folds serial dilution) was added into the corresponding cell well, incubated at 4° C. for 30 minutes, and then PBS was used to wash out the unbound part. The sheep anti-human Fc PE fluorescent second antibody (Southern Biotech, J2815-5H87B) was added, then incubated at 4° C. for 15 minutes. and detected by flow cytometry ([…] BD). […] Some of these antibodies were selected to make a further binding curve at cell level.

[5] = molecular target: T5, cynomolgus monkey CD3 E&D complex protein (Sino Biological Inc., CT032-00323H) (cynomolgus monkey, UniProt Q95LI5 22-117; Q95LI8 22-105); test: BLI, antibody on sensor
T5 construct: bought heterodimer
T5 sequence (Q95LI5 22-117, chain 1 of 2): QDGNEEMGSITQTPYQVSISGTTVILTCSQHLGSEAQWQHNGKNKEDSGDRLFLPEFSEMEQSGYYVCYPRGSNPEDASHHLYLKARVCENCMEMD
T5 sequence (Q95LI8 22-105, chain 2 of 2): as the sequence (P04234 22-105, chain 2 of 2) above, with I5V, N15K, I20V, S32T, D33N, I34N, T64A, S74N, V83L counted along it

[6] = molecular target: T1, human CD3 E&D complex protein (Sino …); test: BLI, antibody on sensor; remark: listed apart in the source
[7] = molecular target: T1, human CD3 E&D complex protein (Sino …); test: BLI, antibody on sensor; remark: listed apart in the source
[8] = molecular target: T6, human CD3E&G complex (Sino Biological Inc., CT041-H0305H) (human, UniProt P07766 23-126; P09693 23-116); test: BLI, antibody on sensor
T6 construct: bought heterodimer; also called human CD3E&G antigen
T6 sequence (P07766 23-126, chain 1 of 2): as the sequence (P07766 23-126, chain 1 of 2) above
T6 sequence (P09693 23-116, chain 2 of 2): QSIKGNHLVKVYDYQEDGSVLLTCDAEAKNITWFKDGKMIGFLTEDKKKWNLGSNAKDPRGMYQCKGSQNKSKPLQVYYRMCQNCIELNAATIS

[9] = molecular target: T4, human CD3 complex on Jurkat cells; test: flow cytometry on Jurkat cells (human CD3 complex), 'Jurkat cell line binding', Example 3.2 [cont) D]
Procedure: as §1

[10] = molecular target: T4, human CD3 complex on Jurkat cells; test: flow cytometry on Jurkat cells (human CD3 complex), method of Example 3.2
Procedure: as §1

Row | Binder | Kd [1] | koff [1] | kon [1] | Kd [2] | EC50 (read off the curve) [4] | Kd [7] | koff [7] | kon [7] | Kd [8] | koff [8] | kon [8] | further results
1 | B1 | 7.46 nM | 0.00516 s⁻¹ | 693000 M⁻¹ s⁻¹ | 0.576 nM | – | – | – | – | – | – | – | koff [2]: 0.0002 s⁻¹; kon [2]: 347000 M⁻¹ s⁻¹; EC50 of killing of DAN-G-hCLDN18.2 cells by PBMC [3]: < 0.1 pM; EC50 of killing of NUGC-4 cells by PBMC [3]: < 0.001 nM
2 | B2 | 89.1 nM | 0.0718 s⁻¹ | 807000 M⁻¹ s⁻¹ | 0.57 nM | – | – | – | – | – | – | – | EC50 of killing of DAN-G-hCLDN18.2 cells by PBMC [3]: < 0.1 pM; EC50 of killing of NUGC-4 cells by PBMC [3]: < 0.001 nM
3 | B3 | 446 nM | 0.169 s⁻¹ | 379000 M⁻¹ s⁻¹ | 0.57 nM | – | – | – | – | – | – | – | –
4 | B4 | – | – | – | – | ~0.5 nM | 0.638 nM | 0.000157 s⁻¹ | 246000 M⁻¹ s⁻¹ | 6.22 nM | 0.00149 s⁻¹ | 240000 M⁻¹ s⁻¹ | Kd [5]: 0.646 nM; koff [5]: 0.000795 s⁻¹; kon [5]: 1.23e+06 M⁻¹ s⁻¹; Kd [6]: 0.932 nM; koff [6]: 0.0019 s⁻¹; kon [6]: 2.04e+06 M⁻¹ s⁻¹; EC50 [9]: 2 nM
5 | B5 | – | – | – | – | – | 0.975 nM | 0.000234 s⁻¹ | 240000 M⁻¹ s⁻¹ | 8 nM | 0.00179 s⁻¹ | 224000 M⁻¹ s⁻¹ | Kd [5]: 0.738 nM; koff [5]: 0.000941 s⁻¹; kon [5]: 1.28e+06 M⁻¹ s⁻¹; Kd [6]: 0.718 nM; koff [6]: 0.00247 s⁻¹; kon [6]: 3.44e+06 M⁻¹ s⁻¹; EC50 [9]: 1.25 nM
6 | B6 | – | – | – | – | – | – | – | – | – | – | – | binding result [10]: no binding (tested: 900 (no unit printed on the sheet)); binding result [7]: no binding; binding result [8]: no binding
7 | B7 | – | – | – | – | – | – | – | – | – | – | – | binding result [10]: no binding (tested: 900 (no unit printed on the sheet)); binding result [7]: no binding; binding result [8]: no binding
8 | B8 | – | – | – | – | ~2 nM | 5.62 nM | 0.00156 s⁻¹ | 278000 M⁻¹ s⁻¹ | 11 nM | 0.00148 s⁻¹ | 135000 M⁻¹ s⁻¹ | –
9 | B9 | – | – | – | – | ~4 nM | 4.11 nM | 0.000914 s⁻¹ | 223000 M⁻¹ s⁻¹ | 16 nM | 0.00286 s⁻¹ | 179000 M⁻¹ s⁻¹ | –
